Assay results taken from the supplement of paper PMC12764529.
± gives the half width of the 95% confidence interval.

Columns and labels:
[1] = folding stability dG unfold (combined trypsin and chymotrypsin); higher = more stable
Outline: (§1)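 Only designs with AlphaFold2 dimer inter-PAE above 15 were retained; each was a mini-protein under 80 residues with no cysteine, in a PA-tagged cDNA display construct. After digestion with trypsin and chymotrypsin and sequencing, K50 was inferred by Bayesian fitting of counts, and unfolding free energy was derived per protease or combined against a sequence-predicted unfolded-state K50 and a shared folded-state K50.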

[2] = folding stability dG unfold from trypsin proteolysis; higher = more stable
Outline: as §1

[3] = folding stability dG unfold from chymotrypsin proteolysis; higher = more stable
Outline: as §1

| Sequence | folding stability dG unfold [1] | folding stability dG unfold [2] | folding stability dG unfold [3] |
| --- | --- | --- | --- |
| SAGGATAVIADFPLPEGTLRVAVVKKDDKPYVFVFPSGISAEELKKILEEKLGVDIKKVEVKTVSTADESAG [r5_181_TrMRF] | 1.7 ± 0.093 kcal/mol | 1.11 ± 0.053 kcal/mol | 2.04 ± 0.022 kcal/mol |
| SAGGATITLEPGTFTIEFPENELVIPVPVPEERPDVSPEEAAREIVEELREKYGLPPPEDLTVELAPSAGGS [r8_402_JUSTAS] | 0.273 ± 0.22 kcal/mol | 0.299 ± 0.13 kcal/mol | 0.184 ± 0.27 kcal/mol |
| SAGGATVTVTEYPLPTGTLYRVTVTVGSKTTTFTVPPGVSLEEIKEIVEKEVGVDLTTVTTTTVSTAAASAG [r5_181_JUSTAS] | 3.56 ± 0.14 kcal/mol | 3.06 ± 0.14 kcal/mol | 3.83 ± 0.062 kcal/mol |
| SAGGAVELRIVVRRTRPDPLTGRPVEEELTLTVPVDLDPERGVSAAEVARALAAALPDEVREVRAEPGSAGG [r13_335_TrMRF] | 0.632 ± 0.12 kcal/mol | 0.51 ± 0.17 kcal/mol | 0.705 ± 0.08 kcal/mol |
| SAGGAVLTTEDPEKISLTFYSPEGAVLGSEEIEVEPPEIVLTNVPPEEAAAIKKENPDVPISLNPALGSAGG [r13_235_JUSTAS] | 0.685 ± 0.071 kcal/mol | 0.956 ± 0.03 kcal/mol | 0.456 ± 0.029 kcal/mol |
| SAGGDEIVDRIKQAFHNFGYPVRIDDISPPNGKIYIRISPAMRENMKPAIIEIPFPGIKDITIEMWPSAGGS [r8_318_TrROS] | 1.53 ± 0.17 kcal/mol | 1.25 ± 0.14 kcal/mol | 1.49 ± 0.14 kcal/mol |
| SAGGDIKILSIQFMPPGWIMIVAEIPLENGEKWHISIMIRITPEARNHPPGQEYEFRIDINISIVPRSAGGS [r16_787_TrROS] | 4.5 ± 0.32 kcal/mol | 3.5 ± 0.26 kcal/mol | 4.91 ± 0.41 kcal/mol |
| SAGGDLLKELARELGFNVEIERDPDDGTIRITIRPPEGHYVTITIKIDYDPENGKLKLEIDEIKVSPPSAGG [r13_936_TrROS] | 3.7 ± 0.17 kcal/mol | 3.68 ± 0.17 kcal/mol | 3.63 ± 0.14 kcal/mol |
| SAGGDMYFVTVEIWRPREPDPDGEWKWEPIPITFPFDPDQAEDFAKEIINILQKDGYHVKIKVIPMPSAGGS [r8_10_TrROS] | 3.17 ± 0.43 kcal/mol | 2.56 ± 0.1 kcal/mol | 3.75 ± 0.28 kcal/mol |
| SAGGDPPDIYVQIEHKNGKTRTIPFDNMSIENIAEELRDHNYDEVKISVFRMGKPIETFKIKIPPGDSAGGS [r16_700_TrROS] | 3.08 ± 0.52 kcal/mol | 3.7 ± 0.27 kcal/mol | 2.95 ± 0.15 kcal/mol |
| SAGGDTFLMLHPHPVKDNGKDKPYYHIMVMKITEVEPDNGKPRLKMEMKMIHIPADDPDALKEAGIPISAGG [r13_670_TrROS] | 1.77 ± 0.16 kcal/mol | 1.81 ± 0.1 kcal/mol | 1.52 ± 0.21 kcal/mol |
| SAGGDTIMIPIRGKGSLEQAKEWAKEIAREFYREGWKNIKISVWVYDKENGEPVYRKEAEIPIKPGDSAGGS [r8_33_TrROS] | 1.94 ± 0.22 kcal/mol | 1.63 ± 0.11 kcal/mol | 2.14 ± 0.18 kcal/mol |
| SAGGDVKEFDSPEDLNKALPALKNGKEVHIRVEMRMPQPDPDGEPRQYPMEFWYTIKLKNGELEIEPISAGG [r13_835_TrROS] | 0.827 ± 0.07 kcal/mol | 0.593 ± 0.071 kcal/mol | 0.988 ± 0.091 kcal/mol |
| SAGGDWRPVEFTIKILIPKGMTADELIEEIKEIARNLGLTIKPISVEVYPVPNKYYVEINVEIWIPPNSAGG [r13_351_TrROS] | 4.17 ± 0.33 kcal/mol | 2.57 ± 0.14 kcal/mol | 4.54 ± 0.19 kcal/mol |
| SAGGDWRTITFNFEVDVPPGQTPEQLIEKAEEIVEELARMFPDVKIEVTDIEVDEDKVYIDVEIRVPDSAGG [r13_805_TrROS] | 3.22 ± 0.16 kcal/mol | 2.6 ± 0.17 kcal/mol | 3.45 ± 0.097 kcal/mol |
| SAGGDYWVFKIEITHRNPNGEPEKWDIFIWFDPDDPDMPAKELADWIAKYLAPNNGYEVKIEEIYPVSAGGS [r8_101_TrROS] | 4.7 ± 0.31 kcal/mol | 3.25 ± 0.15 kcal/mol | 5 ± 0.1 kcal/mol |
| SAGGEDELRPITPEELKALFDRLAAAHGLESEILEVEEPEDVVIVTARIRHGDTVLEVTVAFPVAKDPSAGG [r13_652_TrMRF] | 2.91 ± 0.15 kcal/mol | 2.65 ± 0.14 kcal/mol | 2.97 ± 0.1 kcal/mol |
| SAGGEDGKWREQTFTIENPEDGKKAKIEIEYNPENGYASIEFPGNGKKIDVPFKSLEDILDAIKKIGISAGG [r13_439_TrROS] | 0.0961 ± 0.12 kcal/mol | -0.02 ± 0.074 kcal/mol | 0.0872 ± 0.16 kcal/mol |

| Sequence | folding stability dG unfold [1] | folding stability dG unfold [2] | folding stability dG unfold [3] |
| --- | --- | --- | --- |
| SAGGEEEKVVLTPEEIERLLKELAEALGLEVTITEIEVEEDYVTITVEIKVDGKTLTLTLKLRIEPEPSAGG [r13_652_TrROS_Hall] | 5.14 ± 0.36 kcal/mol | 4 ± 0.42 kcal/mol | 5.23 ± 0.15 kcal/mol |
| SAGGEEGKPKWVEMWIFIPKEILEDIKQGEPLTVKQIAQKIGFPPNIEVKIIEREGDYIYVRITIPVSAGGS [r16_679_TrROS] | 4.66 ± 0.27 kcal/mol | 4.53 ± 0.25 kcal/mol | 4.66 ± 0.11 kcal/mol |
| SAGGEEKEKLREAIRAALDEAIKEGKKIKKIVIVASPEKKEEIAKLLEEEGLLENLEIEVVSPEELKSAGGS [r16_164_TrROS_Hall] | 1.27 ± 0.25 kcal/mol | 1.74 ± 0.072 kcal/mol | 0.665 ± 0.14 kcal/mol |
| SAGGEERERIRRLVRELRRRGYKRITADELARLLGREITEEELEALREAGLIELEEEETVEVVLPEEESAGG [r13_188_TrROS_Hall] | 4.15 ± 0.14 kcal/mol | 4.02 ± 0.16 kcal/mol | 4.26 ± 0.085 kcal/mol |
| SAGGEIEIDENGFIRMTLYDPATGYKIEAEFRILPDGTIEITKIKIEPLPPPPPPKVFVLDENGELVESAGG [r13_646_TrROS_Hall] | 2.77 ± 0.38 kcal/mol | 3.31 ± 0.2 kcal/mol | 3.1 ± 0.086 kcal/mol |
| SAGGEIEVEVLEVDPETGEVLLKITFDAEPEVIDFLVSLGFDPEHISDDGDGKVTAIVRAPPDLTIASAGGS [r16_755_TrMRF] | 2.79 ± 0.09 kcal/mol | 2.21 ± 0.087 kcal/mol | 3.02 ± 0.061 kcal/mol |
| SAGGEKEEIIKKLSKYPKNYRVLLKSPDGTLYEYSSPEEVIKMPLTLPNGKEVIIVKISPEKSPKLLSAGGS [r16_680_JUSTAS] | 0.758 ± 0.099 kcal/mol | 0.438 ± 0.091 kcal/mol | 0.836 ± 0.098 kcal/mol |
| SAGGEKKVLIVKVEIKLINNGGEFEAEFVFPEDVTLEEILAKVKELLPPGAKAEIKIKEIKLVSEDGSAGGS [r16_393_TrMRF] | 3.58 ± 0.39 kcal/mol | 3.93 ± 0.18 kcal/mol | 2.76 ± 0.15 kcal/mol |
| SAGGEKLETFPFKGDDDREVTLVRFEGEDRILLLVYDPDTDKVLLIAPDAIAEIDLKTGEAKVILKKSSAGG [r13_416_TrMRF] | 1.98 ± 0.049 kcal/mol | 1.66 ± 0.046 kcal/mol | 2.111 ± 0.016 kcal/mol |
| SAGGEKVVLEIVLPPELENLTPEELEALKNITLPNGFKITDIELVEENGRLVIRITVDSPEAAEALLKSAGG [r13_269_TrROS_Hall] | 2.19 ± 0.22 kcal/mol | 2.04 ± 0.086 kcal/mol | 2.23 ± 0.056 kcal/mol |
| SAGGELENLTVEELKALLEELFPDVEVKVTVEKLPEGYYRITVEIRVRLPNGETRRFELELVIRLEDSAGGS [r16_564_TrROS_Hall] | 5.22 ± 0.28 kcal/mol | 4.03 ± 0.23 kcal/mol | 5.36 ± 0.25 kcal/mol |
| SAGGELPLSDITVESESPVTGGSWTVTLEVPSLGLRITVPAAELGAVAASTPGVATSLSPVSPAEPASAGGS [r16_61_JUSTAS] | 0.225 ± 0.091 kcal/mol | -0.251 ± 0.11 kcal/mol | 0.454 ± 0.093 kcal/mol |
| SAGGELSEEFVKKLFENLGFEELEVVDLENKKVAYFRKGNYLVKVYDDGTIEIFDENGELVETINVDSAGGS [r8_147_TrMRF] | 3.48 ± 0.19 kcal/mol | 2.26 ± 0.12 kcal/mol | 3.89 ± 0.053 kcal/mol |
| SAGGELTEEQRKRLEEERRRREEEERRRQAAPVKVTVTVEFDPETGEVRVRVFNENGELVAEARFKVESAGG [r13_247_TrROS_Hall] | 3.17 ± 0.19 kcal/mol | 2.08 ± 0.092 kcal/mol | 3.77 ± 0.14 kcal/mol |
| SAGGEPGALSSSTYTITAPAKSVSKTVTVSYNPADGTATITFPESGKTITVPAVSDEEVLALIKEILLSAGG [r13_439_JUSTAS] | 0.322 ± 0.065 kcal/mol | 0.697 ± 0.025 kcal/mol | -0.67 ± 0.31 kcal/mol |
| SAGGEPLFGGSFSAEPYRTADGRLVYIVPEVTLPNGRKARAAVIYDPSTGRPIVVLYLGDKPIVLDASAGGS [r16_766_TrMRF] | 2.24 ± 0.026 kcal/mol | 1.889 ± 0.017 kcal/mol | 2.41 ± 0.039 kcal/mol |
| SAGGEPVLVPVKGTFENPELGVKVEVEAYFFPEFDFALVNVKVTPYSPDGKPLEVEGTFVVSVSELLKSAGG [r13_807_TrMRF] | 2.75 ± 0.12 kcal/mol | 2.02 ± 0.082 kcal/mol | 3.16 ± 0.086 kcal/mol |
| SAGGERERLLTLEVEIDVPPGVSPEEIAARLAALLPPGAEIERVEIRYDPATRKITVRVVIRLPEGLSAGGS [r16_396_TrROS_Hall] | 3.25 ± 0.29 kcal/mol | 3.59 ± 0.25 kcal/mol | 2.78 ± 0.093 kcal/mol |
